Source: US20230257452A1 (GTINVENT, published 2023)

Experiments:
dGAE (tau 297-391) [1] = biological target: T1, dGAE (tau 297-391) (human, UniProt P10636 614-708); assay: ELISA, antigen coated, scAb titrated
T1 construct: also called dGAE95
Source text: The plates were blocked with 2% MPBS and scAb samples added at desired starting concentrations and double diluted across the plate. Binding was detected using anti-Human C Kappa HRP conjugated secondary antibody and the resulting immunoreaction was developed and absorbance values measured as described above.

[2] = biological target: T2, full length human tau protein (2N4R, isoform Tau-F, 441 amino acids) (human, UniProt P10636 1-758); assay: sandwich ELISA, S1D12 mAb capture, hT40 titrated, detection scAb, chemiluminescent
T2 construct: also called hT40; htau40
Procedure: (§1) Full length tau (hT40), at 1 μg/ml starting concentration was added to designated wells and double diluted across rest of the plates and left to incubate at R/T for 1 h. A series of detection scAbs with varying epitope recognition properties were added at 10 μg/ml to designated wells (FIG. 22). For colourimetric detection HRP conjugated anti-HuCk secondary antibody was used and the resulting immunoreaction was developed and absorbance at 450 nm measured as described previously. Cut-off point for a positive binding event was an absorbance value of 0.3 following background subtraction. In order to enhance the assay sensitivity, a chemiluminescent detection method was adopted where 50 μL SuperSignal ELISA Femto Substrate (Thermo Scientific) was added to each well following incubation with anti-HuCK HRP antibody and subsequent washing. The luminescence was read using Clariostar Plus microplate reader. A further modification to this protocol was done where various detection scAbs were directly conjugated with HRP and detected using chemiluminescent protocol as before.

dGAE (tau 297-391) [3] = biological target: T1, dGAE (tau 297-391); assay: tau-tau immunoassay: scAb preincubated with 100 nM dGAE; blocked ligand: plate-bound dGA (1000 nM); bound dGAE detected with E2E8
Procedure: The adapted method is as follows: dGA (1000 nM) was adsorbed to a Nunc 96-well MaxiSorp plate and incubated for 1 h at 37° C. Plates were subsequently washed 3 times with PBST which was performed after each 1 h incubation. The plates were blocked with 2% (w/v) dried milk powder in PBS for 1 h at 37° C. […] The secondary antibody used was HRP-conjugated Anti-mouse IgG (1:1000 dilution, Sigma) and incubated at RT for 1 h. The plate was subsequently developed, and readings taken at absorbance 450 nm.

[4] = biological target: T2, full length human tau protein (2N4R, …); assay: sandwich ELISA, S1D12 mAb capture, hT40 titrated, detection scAb at 10 ug/ml, colourimetric
Procedure: as §1

[5] = biological target: T2, full length human tau protein (2N4R, …); assay: ELISA, hT40 coated, scAb titrated

T2 sequence (P10636 other isoform, or with tags, fused parts or gaps limits assumed): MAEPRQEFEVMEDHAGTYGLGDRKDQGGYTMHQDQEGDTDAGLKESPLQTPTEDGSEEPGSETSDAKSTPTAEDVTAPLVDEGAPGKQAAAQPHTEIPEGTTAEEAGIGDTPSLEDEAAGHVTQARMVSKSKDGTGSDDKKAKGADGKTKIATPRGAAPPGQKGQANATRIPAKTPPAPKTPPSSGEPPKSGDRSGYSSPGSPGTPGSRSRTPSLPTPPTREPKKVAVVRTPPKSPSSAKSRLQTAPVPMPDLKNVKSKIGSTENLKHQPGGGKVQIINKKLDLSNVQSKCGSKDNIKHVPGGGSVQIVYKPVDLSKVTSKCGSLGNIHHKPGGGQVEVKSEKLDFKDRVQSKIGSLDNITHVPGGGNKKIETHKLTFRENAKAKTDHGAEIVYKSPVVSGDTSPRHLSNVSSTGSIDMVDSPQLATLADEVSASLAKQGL
T1 sequence (P10636 614-708 limits assumed): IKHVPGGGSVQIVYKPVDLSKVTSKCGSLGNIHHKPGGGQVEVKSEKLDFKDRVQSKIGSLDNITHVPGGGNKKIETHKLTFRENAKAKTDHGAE

Binder | LoD (ng/ml) chemiluminescence detection [2] | B50 (dGAE (tau 297-391) [3]) | LoD (ng/ml) colourimetric detection [4] | also measured
E2B7 scAb (scFv, not shown: human C kappa domain and hexa-His tag of the scAb format) scFv: QVQLQESGPSLVKPSQTLSLTCTVSGFSLTSWGVAWVRQAPGKALEWLGTMRSGGGTEYNPALKSRLSITRDTSKSQVSLSLSSVTTEDMAMYYCARGYLSGIHYAWGRGLLVSVSSEGKSSGASGESKVDDQAVLTQLSSVSGSLGQRVSITCSGSSSNVGDGDYVGWFQQLPGSAPKLLIYSARNRASGVPDRFSGSRSGNTATLTITSLQAEDEADYYCASIDTSRSHIFGSGTRLTVLG |  |  |  | binding result (dGAE (tau 297-391) [1]): binds
CA4 scAb (scFv, not shown: human C kappa domain and hexa-His tag of the scAb format) scFv: QVQLQESGPSLVKPSQTLSLTCTVSGFSLTSYSVYWVRQAPGQALEWISIMYASGRVDYNPALKSRLSITRDTSKSQFSLSLSSVTTEDTAVYYCTRGIENWGPGLLVTVSSEGKSSGASGESKVDDDIQVTQSPSSLSASLTERVSITCRTSQSVNNYLSWYQQKPGQAPKLLIYYATRLYTDVPSRFSGSGSGTDYTLTITSLEADDTATYYCLQYDSTPLAFGGGTNVEIK | 0.37 ng/mL | 221 nM | 6 ng/mL | 
412E10 scAb (scFv, not shown: human C kappa domain and hexa-His tag of the scAb format) scFv: QVQLQESGPSLVKPSQTLSLTCTVSGFSVISDSVAWVRQAPGKVPEWLGASGSSGNKYYNPALKSRLSITRDTSKSQVSLSLSSVTTEDTAVYYCARGIIAGVDVWGRGLLVTVSSEGKSSGASGESKVDDQAVLTQPSSVSGSLGQRVSITCSGSSSNVGYGNYVGWYQQVPGSAPKLLIYGTAIRASGVPDRFSGSRSGDTATLTITSLQAEDEADYYCASYQSNYAFFGSGTRLTVLG | 0.37 ng/mL |  | 20 ng/mL | 
S1D9 scAb (scFv, not shown: human C kappa domain and hexa-His tag of the scAb format) scFv: QVQLQESGPSLVKPSQTLSLTCTVSGFSLTSNSVGWVRQAPGKAPEWVAGIDSDGEEGYNPALNSRLSITRDTSKNQVSLSLSRVTSEDTAVYYCGRTYRTDGYAYGYVQAIDYWGPGLLVTVSSEGKSSGASGESKVDDRVMLTQPPSVSGSPGQTVSITCSGSFIGISSVGWFQQLPGSGLRTVIFASDGRPSGVPDRFSNSKSGNTATLTISSLQAEDEADYFCGSSDRTQYTGVFGSGTRLTVLS |  | 107 nM |  | 
CE3 scAb (scFv, not shown: human C kappa domain and hexa-His tag of the scAb format) scFv: QVRLQESGPSLVKPSQTLSVTCTVSGFSLISNAVGWVRQAPGKVPESLAGCSSDGKCYYNSALKSRLDITRDTSKNQISLSLSSVTTDDAAVYYCTRGYYPVYGYDYLGTIDYWGPGLLVTVSSEGKSSGASGESKVDDQAVLTQPSSVSGSLGQRVSITCSGSSSNVGRNDVAWFQQLPGSGLRTIIYGTTSRPSGIPDRFSGSKSGVTATLTIDSLQAEDEADYFCASGDSSAINDIFGSGTRLTVLG |  | 209 nM |  | 
CA12 scAb (scFv, not shown: human C kappa domain and hexa-His tag of the scAb format) scFv: QVQLQGSGPSLVKPSQTLSLTCTVSGFSFDSYYVGWVRQAPGKALEWLGNIYSTGRAFYNPALKSRLSITRDTSKSQVSLSVSSVTIEDTALYYCVRGSYYHGGGNGMVDFFDYWSPGLLVTVSSEGKSSGASGESKVDDQVVRTQPSSVSGSLGQRVSITCSGSSSNVGYGNYVGWFQQVPGSAPKLLIYAATSRASGVPDRFSGSRSGNTATLTIDSLQAEDEADYYCSSYQRGNTGVFGSGTRLTVLG |  | 59 nM |  | EC50 (read off the curve) [5]: ~0.02 µg/mL
CC7 scAb (scFv, not shown: human C kappa domain and hexa-His tag of the scAb format) scFv: QVQLQESGPSLVKPSQTLSLTCTVSGFSLTSNAVIWVRQAPGKAPEWVALIDVDGDAAYDPALKSRLSITRDTSKSQVSLSLRSVTTEDTAVYYCARDYGSWGYVSDIDYWGPGLLVTVSSEGKSSGASGESKVDDRVVRTQPSSVSGSLGQRVSITCSGSYITGSSVGWFQQVPGSGLKTVIYDNNDRPSGVPDRFSGSKSGDTATLTISSLQAEDEADYYCASYDTSNIGLFGSGTRLTVLG | 3.33 ng/mL |  | 6 ng/mL | 
CB7 scAb (scFv, not shown: human C kappa domain and hexa-His tag of the scAb format) scFv: QVQLQESGPSLVKPSQTLSLTCTVSGFSLTNYRVGWVRQAPGKALEWVSNIRSGGTTWYNPALKSRLSITADTSKSQVSLSLSSVTTEDTAVYYCARDSSGDLYAYDYWGPGLLVTVSSEGKSSGASGESKVDDQAVLTQPSSVSRSLGQSVSMTCSGSSSNVGYGNYMAWFQQVPGSAPKLLIYGATSRASGVPDRFSGSRSGNTATLTISSLQAEDEADYYCASYDSTSGGVFGSGTRLTVLG | 3.33 ng/mL |  | 15 ng/mL | 
CB2 scAb (scFv, not shown: human C kappa domain and hexa-His tag of the scAb format) scFv: QVQLQESGPSLVKPSQTLSLTCTVSGFSLSTNSVGWVRQAPGKAPEWVAGIDTDGEEGFNPVLKSRLSITRDTSKSQVSLSLSNVTSEDTAVYYCGRSYRTDGLAYGYVQAIDYWGPGLLVTISSEGKSSGASGESKVDDQSVLTQPSSVSGSPGQTVSITCSGSYIGSSGVGWFQQLPGSGLRTIIVASDGRPSGVPDRFSMSKSGNTATLTISSLQAEDEADYFCGSSDRTQYTGLFGSGTRLTVLG |  | 93 nM |  | 
CE2 scAb (scFv, also called CE2/E1B8; not shown: human C kappa domain and hexa-His tag of the scAb format) scFv: QVQLQESGPSLVKPSQTLSLTCTVSGFSLTNYPVGWVRQAPGKALEWIGNIENDGSANYASALKSRLSITRDTSKNQVSLSLSSATTEDTAVYYCGREFGGSDGYTYFVDIDYWGPGLLVTVSSEGKSSGASGESKVDDQAVLTQPSSVSKSLGQSVSITCSGSSSNVGYGNYVSWFQQVPGSAPKILIYGATSRASGVPDRFSGSRSGNTATLTITSLQAEDEADYYCASYDGSSSGVFGSGTRLTVLG |  | 211 nM |  | 
S2C6 scAb (scFv, not shown: human C kappa domain and hexa-His tag of the scAb format) scFv: QVQLQESGPSLVKPSQTLSLTCTVSGFSLISNSVGWVRQAPGKAPEWVAGIDTDGEEGYNPALKSQYAASDPDTSKSQVSLSLSSVTSEDTAVYYCGRTYRTDGFAYGYVQAIDYWGPGLLLTISSEGKSSGASGESKVDDQAVLTQPSSVSGSLGQRVSITCSGSFIGISSVGWFQQLPGSGLRTIIVASDGRPSGVPDRFSMSKSGNTATLTISSLQAEDEADYFCGSSDRTQYTGVFGSGTRLTVLG |  | 51 nM |  | 
S1G10 scAb (scFv, not shown: human C kappa domain and hexa-His tag of the scAb format) scFv: QVQLQESGPSLVKPSQTLSLTCTVSGFSLTSNSVGWVRQAPGKAPEWVAGIDTDGEEGYNPALNSRLSITRDTSKSQVSLSLSSVTSEDTAVYYCGRSYRADGLAYGYVQAIDYWGPGLLVTVSSEGKSSGASGESKVDDQAVLTQPSSMSGSLGQRVSITCSGSFIGISSVGWFQQLPGSGLRTIIVASDGRPSGVPDRFSMSKSGNTATLTISSLQAEDEADYFCGSSDRTQYTGVFGSGTRLTVLG | 0.12 ng/mL | 207 nM | 2 ng/mL | 
S1E12 scAb (scFv, not shown: human C kappa domain and hexa-His tag of the scAb format) scFv: QVQLQESGPSLVKPSQTLSLTCTVSGFSLGSNSVGWVRQAPGKAPEWVAGIDTDGEEGYNPALNSRLSITRDTSKSQVSLSLSSVTSEDTAVYYCGRSYRADGLAYGYVQAIDYWGPGLLVTVSSEGKSSGASGESKVDDRVVRTQPSSVSGSLGQRVSITCSGSFIGISSVGWFQQLPGSGLRTIIVASDGRPSGVPDRFSMSKSGNTATLTISSLQAEDEADYFCGSSDRTQYTGVFGSGTRLTVLG |  | 92 nM |  | 
S1B1 scAb (scFv, not shown: human C kappa domain and hexa-His tag of the scAb format) scFv: QVQLQESGPSLVKPSQTLSLTCTVSGFSLSSNSVGWVRQAPGKAPEWVAGIDTDGEEGYNPALNSRLSITRDTSKSQVSLSLSSVTSEDTAVYYCVRSYRTDGLAYGYVQAIDYWGPGLLVTVSSEGKSSGASGESKVDDQAVLTQPSSVSGSLGQRVSITCSGSFIGISSVGWFQQLPGSGLRTVIVASDGRPSGVPDRFSNSKSGNTATLTISSLQAEDEADYFCGSSDRTQYTGVFGSGTRLTVLG |  | 101 nM |  | 
S1F4 scAb (scFv, not shown: human C kappa domain and hexa-His tag of the scAb format) scFv: QVQLQESGPSLVKPSQTLSLTCTVSGFSLSSNSVGWVRQAPGKAPEWVAGIDTDGEEGYNPALNSRLSITRDTSKSQVSLSLSSVTSEDTAVYYCVRSYRADGLAYGYVQAIDYWGPGLLLTISSEGKSSGASGESKVDDQAVVTQPSSVSGSLGQRVSITCSGSFIGISSVGWFQQLPGSGLRTVIVASDGRPSGVPDRFSNSKSGNTATLTISSLQAEDEADYFCGSSDRTQYTGVFGSGTRLTVLG |  |  |  | EC50 (read off the curve) [5]: ~0.05 µg/mL
